# ± gives the standard deviation of the averaged measurements.
# Assays:
# Saccharomyces cerevisiae [1] = test: protein stability index of tFT-peptide fusion (C-terminal peptide) (PSI (0-1 scale)); higher = more stable (slower turnover); conditions: genetic background: wild type; temperature: 30 C
# Saccharomyces cerevisiae [2] = test: as above
# Description: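 MPS profiling in S. cerevisiae of the tFT-X12 degron library: putative degron peptides plus stable controls, 12 aa, fused to the C-terminus of a sfGFP-mCherry timer. Cells are FACS-sorted into 8 mCherry/sfGFP bins and deep-sequenced. PSI runs from 0 (unstable) to 1 (stable). Backgrounds are wild type, das1Δ and doa10Δ at 30 °C, and wild type, das1Δ, cdc34-1 and cdc53-1 at 37 °C; 2-3 technical replicates each.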
# [3] = genetic background: cdc34-1, temperature: 37 C
# [4] = genetic background: cdc53-1, temperature: 37 C
# [5] = genetic background: das1 deletion, temperature: 30 C
# [6] = genetic background: das1 deletion, temperature: 37 C
# [7] = genetic background: doa10 deletion, temperature: 30 C
# [8] = genetic background: wild type, temperature: 30 C
# [9] = genetic background: wild type, temperature: 37 C
# 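Note: PSI is a weighted mean of sequencing reads over stability bins, variants kept only with over 10 reads, mCherry proximal and sfGFP distal, peptide attached via GGGS linker.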
Sequence,protein stability index (Saccharomyces cerevisiae [1]),protein stability index (Saccharomyces cerevisiae [2]; [3]),protein stability index (Saccharomyces cerevisiae [2]; [4]),protein stability index (Saccharomyces cerevisiae [2]; [5]),protein stability index (Saccharomyces cerevisiae [2]; [6]),protein stability index (Saccharomyces cerevisiae [2]; [7]),protein stability index (Saccharomyces cerevisiae [2]; [8]),protein stability index (Saccharomyces cerevisiae [2]; [9])
LLPLSLSLLLSV,0.453 ± 0.023,0.52 ± 0.015,0.541 ± 0.0062,0.432 ± 0.023,0.5638 ± 0.0033,0.414 ± 0.0064,0.429 ± 0.021,0.53568 ± 0.00041
FYLPGLFFVRFR,0.391 ± 0.022,0.167 ± 0.072,0.0822 ± 0.053,0.313 ± 0.043,0.33 ± 0.019,0.616 ± 0.037,0.272 ± 0.026,0.29 ± 0.04
CRLFPFPLLAQL,0.488 ± 0.084,0.646 ± 0.034,0.7407 ± 0.003,0.628 ± 0.021,0.7522 ± 0.0063,0.425 ± 0.013,0.415 ± 0.025,0.484 ± 0.023
WDSCVGRRGIVA,0.4869 ± 0.0015,0.559 ± 0.025,0.63 ± 0.021,0.402 ± 0.035,0.62 ± 0.025,0.388 ± 0.013,0.42 ± 0.021,0.6038 ± 0.0016
VLSWRAWGESGV,0.445 ± 0.024,0.387 ± 0.02,0.426 ± 0.015,0.466 ± 0.032,0.392 ± 0.014,0.493 ± 0.03,0.468 ± 0.011,0.382 ± 0.007
SPKFMCSLSCWW,0.732 ± 0.011,0.714 ± 0.026,0.77647 ± 0.00063,0.685 ± 0.071,0.7527 ± 0.006,0.6577 ± 0.0042,0.665 ± 0.014,0.744 ± 0.021
LCFEQRYIGVLV,0.372 ± 0.0085,0.305 ± 0.045,0.38376 ± 5e-05,0.279 ± 0.035,0.4433 ± 0.0021,0.227 ± 0.008,0.251 ± 0.03,0.393 ± 0.018
TCFVKLLPFLVL,0.546 ± 0.067,0.549 ± 0.052,0.562 ± 0.011,0.456 ± 0.02,0.608 ± 0.024,0.4425 ± 0.0032,0.442 ± 0.013,0.5482 ± 0.0021
FVVFAFGVLPVK,0.466 ± 0.011,0.496 ± 0.005,0.5131 ± 0.0027,0.389 ± 0.028,0.552 ± 0.012,0.361 ± 0.019,0.388 ± 0.039,0.514 ± 0.0089
LMPYIIFLMSFQ,0.418 ± 0.014,0.458 ± 0.026,0.496 ± 0.017,0.351 ± 0.027,0.5408 ± 0.0045,0.335 ± 0.028,0.347 ± 0.0081,0.498 ± 0.042
VPRLFSVIVVPV,0.488 ± 0.052,0.517 ± 0.04,0.5325 ± 0.0033,0.39 ± 0.033,0.5519 ± 0.0049,0.359 ± 0.012,0.389 ± 0.03,0.536 ± 0.018
KKRYSEIFKKNG,0.408 ± 0.05,0.694 ± 0.057,0.728 ± 0.025,0.637 ± 0.016,0.769 ± 0.037,0.211 ± 0.033,0.254 ± 0.023,0.56 ± 0.039
GEWCLPLRLVVY,0.22 ± 0.043,0.061 ± 0.013,0.0685 ± 0.024,0.185 ± 0.021,0.201 ± 0.011,0.137 ± 0.01,0.172 ± 0.02,0.174 ± 0.012
IKPSVHILIRTL,0.21 ± 0.0069,0.544 ± 0.019,0.57 ± 0.017,0.446 ± 0.046,0.571 ± 0.02,0.118 ± 0.022,0.14 ± 0.0072,0.222 ± 0.0071
GFCVRIFHGFLH,0.351 ± 0.01,0.634 ± 0.0084,0.7 ± 0.044,0.649 ± 0.018,0.7197 ± 0.0045,0.215 ± 0.0082,0.251 ± 0.04,0.501 ± 0.014
RILKEFKRIAVL,0.168 ± 0.031,0.501 ± 0.05,0.687 ± 0.092,0.479 ± 0.024,0.7193 ± 0.006,0.093 ± 0.0061,0.0985 ± 0.016,0.139 ± 0.032
WFGGVRVPRHVV,0.455 ± 0.032,0.651 ± 0.034,0.709 ± 0.027,0.668 ± 0.018,0.7484 ± 0.0044,0.394 ± 0.024,0.448 ± 0.018,0.645 ± 0.026
VFFGCIWSIVYN,0.2962 ± 0.0012,0.247 ± 0.022,0.302 ± 0.12,0.213 ± 0.035,0.41 ± 0.018,0.181 ± 0.014,0.229 ± 0.042,0.377 ± 0.011
CVFCLTVFVRFL,0.243 ± 0.011,0.197 ± 0.0067,0.26 ± 0.018,0.192 ± 0.028,0.346 ± 0.015,0.128 ± 0.014,0.151 ± 0.022,0.2572 ± 0.0012

# — the supplement of paper PMC10724198
